The values below come from the supplement of paper PMC12042874.

± gives the uncertainty stated by the source.

This data set is described as follows: amyloid nucleation score (Sup35N fusion, yeast selection) (log enrichment); library NNK1; higher = more nucleation; inactive = no reads after selection. The procedure, abridged: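 The nucleation score equals the log enrichment of output over input reads from DiMSum, centred on the mode score of non-aggregating sequences. It was computed only for sequences with 100 or more input reads. The reads came from Illumina sequencing of plasmid inserts from psi-negative yeast expressing Sup35N fused to peptides of 20 random codons, induced with 100 μM copper sulfate for 24 hours and grown 7 days at 30°C without adenine and uracil.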
Substance FGWRISILLVPHRLFRGLPQ returned an amyloid nucleation score of -0.85 ± 1.9.

CCPWEEHGICNEWRHRGSGT: the amyloid nucleation score is -0.199 ± 0.46.

In the case of WMYRLYSISLITSDCS, the amyloid nucleation score was 0.514 ± 0.33.

As for SVPDVVSYTKDTVVFNFGFT, the amyloid nucleation score came to 3.31 ± 0.083.

Take FYYGSLPYCVTKRFRDFGNQ: the amyloid nucleation score is 3.02 ± 0.18.

YTTASDNHVWSWLEYWVRVI displayed an amyloid nucleation score of 0.368 ± 0.56.

IMDSSMGGSSKMYKVVANDL showed an amyloid nucleation score of 0.311 ± 0.64.

Turning to EELTAYMSLDMQLCRNRAAM, the amyloid nucleation score worked out at 0.055 ± 0.55.

Take MDTSL: the amyloid nucleation score was -0.235 ± 0.82.

On to LEYYLVWYNVYL, for which the amyloid nucleation score stood at 0.534 ± 0.19.

In the case of DSFARYVGVLKRLARLSTYR, the amyloid nucleation score was found to be 0.568 ± 0.72.

The substance LEGKPSEFYRNFHIYGVVYQ came in with an amyloid nucleation score of -0.531 ± 1.4.

Regarding DGGICYD, the amyloid nucleation score was found to be 0.733 ± 0.31.

In turn, YPQMLVSVLRFMYY gave an amyloid nucleation score of 0.009 ± 0.26.

In turn, IAYGSINCGFNRL displayed an amyloid nucleation score of 1.18 ± 0.32.

For the substance RRENIP, the amyloid nucleation score came out at 0.01 ± 0.42.

Substance YGLPFHVPACCAYLVVCKGR yielded an amyloid nucleation score of -0.018 ± 0.54.

Consider KNCPALRSFSSKDSSSFVWS, for which the amyloid nucleation score was -0.23 ± 0.43.

For CFMVHNTVVRVGKE, the amyloid nucleation score was 0.177 ± 0.7.

VAFYGFITKINLEIY registered an amyloid nucleation score of 0.578 ± 0.4.

Take NVSSIFITQY: the amyloid nucleation score result was “inactive”.

LGWRSTFCMKYTSQSLSLPR had an amyloid nucleation score of -0.221 ± 0.58.

With CHVQMSFNGLRYNFHTIFFI, the amyloid nucleation score amounted to 1.2 ± 0.74.

KIGWL returned an amyloid nucleation score of -0.555 ± 0.58.

KLIRYYRFACVMSFRVFYSF: the amyloid nucleation score result is “inactive”.

VGSPGCMGLVTLNHVP yielded an amyloid nucleation score of 0.522 ± 0.24.

LTGSISD displayed an amyloid nucleation score of 1.17 ± 0.73.

AANGCASSV: the amyloid nucleation score is -0.856 ± 0.44.

Take FRTHVGSDCGL: the amyloid nucleation score is -0.026 ± 1.

Substance TSDRTKSVLMVYSWV displayed an amyloid nucleation score of -0.576 ± 0.92.

Regarding NNCANIGRIEFMPGHYDMCV, the amyloid nucleation score was found to be 1.11 ± 0.36.

Turning to SYLFVWFTSLLSDPQ, the amyloid nucleation score is -0.716 ± 1.2.

Turning to SNGIQPMERI, the amyloid nucleation score was -1.01 ± 1.7.

KLGTPLRQSDVS: the amyloid nucleation score is -0.461 ± 0.59.

Regarding RCYVDKSYNGDWASSAGQKH, the amyloid nucleation score amounted to 0.065 ± 0.44.

HLEGFYLGIWHGRSRVFSRN: the amyloid nucleation score came to 2.77 ± 0.23.

GDIVQLGPKFCKLYLCIWNC: the amyloid nucleation score amounted to 6.369 ± 0.056.

In the case of HRPYLCGISYGGSRCELYTA, the amyloid nucleation score stood at 0.839 ± 0.75.

In the case of VQLRLMDRNREHYGYEESTR, the amyloid nucleation score worked out at 0.22 ± 0.43.

Substance GRTLVLDFTHHPPILRVPLR registered an amyloid nucleation score of 0 ± 0.48.

As for SGKPYLLGCTFSSVTLCPQV, the amyloid nucleation score is -0.227 ± 0.38.

FWSWSV: the amyloid nucleation score was -0.222 ± 0.42.

The substance LAPISSASLQTFPVAIFRFR yielded an amyloid nucleation score of 0.122 ± 0.43.

On to CDFRIFRLSVPGTYYVCDWL, for which the amyloid nucleation score is -0.018 ± 0.6.

Turning to VMFVPLQSVYSAP, the amyloid nucleation score is -0.766 ± 2.4.

RCVMRAHFSTWLHKVSTSVW showed an amyloid nucleation score of 0.677 ± 0.54.

Take LLWTGY: the amyloid nucleation score came out at 2.43 ± 0.099.

For SSRNSAAFLNHFDADRGLLP, the amyloid nucleation score came out at 1.53 ± 0.14.

With LWFLIFSSKADAKVDRRILL, the amyloid nucleation score worked out at 0.041 ± 0.47.

MDNCIISRYMFHMLVTSKVY gave an amyloid nucleation score of 0.996 ± 0.52.

In the case of TYPLGNSESISVRLFIQYVT, the amyloid nucleation score is 1.39 ± 0.12.

Substance TYSVTFF returned an amyloid nucleation score of 0.231 ± 0.4.

The substance YCVSFLRSSLP showed an amyloid nucleation score of 3.39 ± 0.12.

As for NEFVDQFSEHFGRVGEFPAW, the amyloid nucleation score was -0.316 ± 0.4.

As to YWCLRSLMV, the amyloid nucleation score result is “inactive”.

With AQSALLKS, the amyloid nucleation score was -1.22 ± 1.2.

VTFWHVFLIFSYLSTCAWWW returned an amyloid nucleation score of -0.382 ± 1.2.

SWTGMNSHSLKKHLGI gave an amyloid nucleation score of -0.447 ± 0.93.

Turning to YFYIPFNEMNRWTYCCIRWW, the amyloid nucleation score was -0.04 ± 0.36.

The substance FNGGNTFVCVSLDTCWNGWY came in with an amyloid nucleation score of 7.54 ± 0.085.

VNCLLDQQYR had an amyloid nucleation score of 0.746 ± 0.46.

Regarding ITMSYMSAKCVNWVVWACRL, the amyloid nucleation score was 0.286 ± 0.31.

In the case of PMIPKFMSERCQLIWWM, the amyloid nucleation score worked out at 0.961 ± 0.7.

Take MDSRAVYYF: the amyloid nucleation score result is “inactive”.

As to AFPRARGYMG, the amyloid nucleation score is -0.575 ± 0.37.

The substance FLCHWLYFRNSYGGYVSRW displayed an amyloid nucleation score of 1.92 ± 0.4.

FRALKLEAIPAKVGAPYLVP yielded an amyloid nucleation score of 0.045 ± 0.4.

As to IINKSLWLPRNLAFGNY, the amyloid nucleation score was 0.117 ± 0.47.

Substance ALRGVRVMWAKRS yielded an amyloid nucleation score of -0.484 ± 0.88.

CSNVGVCGMSIH showed an amyloid nucleation score of 5.01 ± 0.052.

On to ARRGHKK, for which the amyloid nucleation score is 1.32 ± 0.64.

Regarding QKYPPRGNRFSLCRITVSCF, the amyloid nucleation score worked out at 0.22 ± 0.89.

FISRCSFAGSCVK came in with an amyloid nucleation score of -1.27 ± 1.7.

ADNRVQRYTDPFLGSVSMYK returned an amyloid nucleation score of 0.563 ± 0.49.

As for NLFTDVIHYMVAFLLVYYII, the amyloid nucleation score was 0.682 ± 0.49.

In turn, SFSMFSEFSLLRCSAYRNPM displayed an amyloid nucleation score of 2.26 ± 0.063.

CVIRKSLFKCQFSMIRESWV gave an amyloid nucleation score of 0.298 ± 0.31.

For the substance RAIMRKIYYHVMMIWI, the amyloid nucleation score was 0.153 ± 0.41.

The substance LTSRIEWNGHAQSLWWLLSK had an amyloid nucleation score of 0.711 ± 0.21.

SGSALYLCAISLRVSTEEKP showed an amyloid nucleation score of -0.178 ± 0.85.

Substance NTGWDRGHGCSLMFHRVLEW had an amyloid nucleation score of 2.67 ± 0.13.

The substance SFDYRENCPINTVIWLRLCK yielded an amyloid nucleation score of 3.93 ± 0.098.

DVSRQFYFDYYNIKGLNITK had an amyloid nucleation score of 0.536 ± 0.79.

The substance FFWYPTFISFDRKFEVTIGP displayed an amyloid nucleation score of 5.07 ± 0.053.

Substance CDGRW displayed an amyloid nucleation score of 0.186 ± 0.3.

Consider NLREDENSGCNCGVDFLGQG, for which the amyloid nucleation score is -0.435 ± 0.4.

In turn, LKLYINIIVVNYNLLSICSH had an amyloid nucleation score of -0.504 ± 0.24.

Turning to FVSLNTIFRAYPQIHYRLVR, the amyloid nucleation score entry is “inactive”.

With GFRPEMHGV, the amyloid nucleation score entry is “inactive”.

The substance TFTWGRMRSSSVDSCVKSWA returned an amyloid nucleation score of 1.2 ± 0.37.

Substance QLVIILERRSWCHIL had an amyloid nucleation score of 2.42 ± 0.27.

As for RFIIFNHDLGLRD, the amyloid nucleation score is -0.384 ± 0.51.

For the substance LYSFNGN, the amyloid nucleation score result was “inactive”.

As for RGFQTKSKGLARRSMYKCWE, the amyloid nucleation score was -0.275 ± 0.31.

In turn, NNWSVQSGNFTFCSGRGLCS came in with an amyloid nucleation score of 7.438 ± 0.054.

In turn, LRTCIVGKLNQTTEILCGSS showed an amyloid nucleation score of 1.14 ± 0.73.

As for SSLYETY, the amyloid nucleation score result was “inactive”.

With HCFYYCMANRL, the amyloid nucleation score was found to be 0.488 ± 0.24.

As for LYQKHWVLSTALE, the amyloid nucleation score entry is “inactive”.

With RMRATLDLSFWFGKEQYARV, the amyloid nucleation score came out at 0.389 ± 0.45.

Substance ALLWQECYMP showed an amyloid nucleation score of 2.26 ± 0.17.

Substance LLALCCDSLRCYR displayed an amyloid nucleation score of 0.282 ± 1.2.

As to HLGGVWLLIHMRRSFPLDIW, the amyloid nucleation score is 0.207 ± 0.7.

Substance NLSSLSWVTIYKNFCAIMSS returned an amyloid nucleation score of -0.378 ± 0.58.

Turning to DNTSCLW, the amyloid nucleation score result was “inactive”.

In the case of TCRIVVGSSCFRSTVFSFLY, the amyloid nucleation score amounted to 1.45 ± 0.68.

DKVMGRTQLTTCQYATGRCR yielded an amyloid nucleation score of 0.406 ± 0.3.

Substance MAPLTMTSDLSHISKTGIWG showed an amyloid nucleation score of 1.38 ± 0.9.

NHIDGVIGY had an amyloid nucleation score of 0.083 ± 0.61.

Substance VASGSCFFRDPKIVIMSFLW returned an amyloid nucleation score of 3.34 ± 0.088.

Regarding LRCSLDGFFGLDWLANLILD, the amyloid nucleation score was -0.115 ± 0.23.

In turn, HWTYWIRI yielded an amyloid nucleation score of -0.084 ± 1.6.

Take QYSGYNRRDDSFPSWGCLLT: the amyloid nucleation score result was “inactive”.

CVRFDSVNCHHLF had an amyloid nucleation score of 0.238 ± 0.24.

In turn, MGDVFILFLLAGFLEDHNGY returned an amyloid nucleation score of -1.24 ± 0.45.

For KYGEVLLVTYTNP, the amyloid nucleation score worked out at 0.577 ± 0.53.

Take KAVYLRVRGTHCVNNVALWK: the amyloid nucleation score came to 3.43 ± 0.18.

Take DSASL: the amyloid nucleation score came to 0.514 ± 0.79.

Consider WVSNL, for which the amyloid nucleation score was 0.296 ± 0.44.

YIIYWGAQLSILHENSPSFG: the amyloid nucleation score was 0.354 ± 0.33.

FMIVKFLIL yielded an amyloid nucleation score of 1.5 ± 0.26.

For the substance VLLYKSLAV, the amyloid nucleation score was found to be 0.964 ± 0.15.

In the case of LEYSS, the amyloid nucleation score was -0.145 ± 0.41.

The substance LAFDYLLKFLDCR showed an amyloid nucleation score of -0.47 ± 0.53.

Regarding KETSVSLHEDGIYCGFITSN, the amyloid nucleation score was found to be 0.187 ± 0.28.

FWVAIRVRVIWVNKKNDGCI showed an amyloid nucleation score of -0.147 ± 0.66.

In the case of VSILSRI, the amyloid nucleation score is -0.842 ± 0.61.

In the case of IQRKSITTWSPH, the amyloid nucleation score came to 3.43 ± 0.2.

As for MYYLRHF, the amyloid nucleation score result is “inactive”.

On to PFGGDFTF, for which the amyloid nucleation score was 0.187 ± 0.24.

Consider NVYWNRWAMTFWLSGDEMWF, for which the amyloid nucleation score came out at 1.27 ± 0.42.

Substance SVLYRINP came in with an amyloid nucleation score of -1.55 ± 2.4.

TAIDITTVLCIICRDPHINL registered an amyloid nucleation score of 8.364 ± 0.048.

On to VCYRGECVDSDLLYLSCP, for which the amyloid nucleation score is -0.389 ± 1.

As to MFNRWDIHFIGNNNLYGICV, the amyloid nucleation score was 0.613 ± 0.26.

Substance LRNVYMCVQWGFMVETGASC displayed an amyloid nucleation score of 3.35 ± 0.16.

Take MFSLYYPFSNWFDLI: the amyloid nucleation score was -0.001 ± 0.52.

Regarding VSNTHVNGGWSRRNGQWLGV, the amyloid nucleation score is -0.708 ± 0.45.

For KRSNSFL, the amyloid nucleation score is 0.319 ± 0.27.

For the substance GSCFLCKI, the amyloid nucleation score came to 0.686 ± 0.53.

TNDEGPVRLNFNISR: the amyloid nucleation score was -0.389 ± 0.26.

LHSNGSD: the amyloid nucleation score entry is “inactive”.

As for LSGPCNFYQHSVSWCLCTYA, the amyloid nucleation score is 0.764 ± 0.88.
